# According to article PMC9880977 (Computational and Structural Biotechnology Journal, 2023):
# T1: HaLF (Heterobasidion irregulare, UniProt W4KBR7, A247E/F364D)
# T1 sequence (W4KBR7 21-648 A247E/F364D): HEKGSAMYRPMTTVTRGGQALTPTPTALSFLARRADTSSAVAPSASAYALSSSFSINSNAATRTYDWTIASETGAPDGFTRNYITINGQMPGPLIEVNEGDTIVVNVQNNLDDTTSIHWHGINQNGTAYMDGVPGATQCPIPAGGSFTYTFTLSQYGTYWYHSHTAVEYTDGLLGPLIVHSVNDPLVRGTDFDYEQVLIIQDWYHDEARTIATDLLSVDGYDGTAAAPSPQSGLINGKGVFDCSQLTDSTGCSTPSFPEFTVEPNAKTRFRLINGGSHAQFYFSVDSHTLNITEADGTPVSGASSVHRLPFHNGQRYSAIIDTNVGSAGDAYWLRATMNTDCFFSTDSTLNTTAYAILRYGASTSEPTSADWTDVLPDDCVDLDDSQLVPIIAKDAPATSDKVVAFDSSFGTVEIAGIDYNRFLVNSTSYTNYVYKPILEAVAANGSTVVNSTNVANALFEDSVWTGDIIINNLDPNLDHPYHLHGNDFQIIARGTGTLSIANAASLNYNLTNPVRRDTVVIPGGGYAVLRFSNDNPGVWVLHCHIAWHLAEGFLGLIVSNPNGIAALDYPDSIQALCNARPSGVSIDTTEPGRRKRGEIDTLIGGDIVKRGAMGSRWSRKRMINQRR
# T2: HaLF (Heterobasidion irregulare, UniProt W4KBR7)
# T2 sequence (W4KBR7 21-648): T1 sequence (W4KBR7 21-648 A247E/F364D)
# B1: HaLF (Heterobasidion irregulare TC 32-1) (protein)
# chain: T1 sequence (W4KBR7 21-648 A247E/F364D)
# Key:
# HaLF [1] = biological target: T1, HaLF; assay: spectrophotometric oxidation at […] nm, hyperbola or Hill fit; type: biochemical; conditions: read-out: HaLFA227E, F344D / KM; 100 mM citrate-phosphate pH 4; air O2
# HaLF [2] = biological target: T2, HaLF; assay: as above; type: biochemical; conditions: read-out: HaLF / KM; 100 mM citrate-phosphate pH 4; air O2
# COc1cccc(OC)c1O = assay: purified protein; type: biochemical, Heterobasidion irregulare; conditions: 100 mM citrate-phosphate pH 5, air O2
# COc1ccccc1O = assay: purified protein; type: biochemical, Heterobasidion irregulare; conditions: 100 mM citrate-phosphate pH 5, air O2
# [3] = system: CCn1c(=NN=c2sc3cc(S(=O)(=O)O)ccc3n2CC)sc2cc(S(=O)(=O)O)ccc21; assay: purified protein; conditions: 100 mM citrate-phosphate pH 4, air O2
# purified protein [4] = substrate: CCn1c(=NN=c2sc3cc(S(=O)(=O)O)ccc3n2CC)sc2cc(S(=O)(=O)O)ccc21; assay: purified protein; conditions: 100 mM citrate-phosphate pH 4, air O2; remark: listed apart in the source
# purified protein [5] = substrate: Nc1ccccc1N; assay: purified protein; conditions: 100 mM citrate-phosphate pH 4, air O2
# purified protein [6] = substrate: COc1ccccc1O; assay: purified protein; type: biochemical, Heterobasidion irregulare; conditions: 100 mM citrate-phosphate pH 5, air O2; remark: listed apart in the source
# purified protein [7] = substrate: COc1cccc(OC)c1O; assay: purified protein; type: biochemical, Heterobasidion irregulare; conditions: 100 mM citrate-phosphate pH 5, air O2; remark: listed apart in the source
molecule,measurement,setting,value
"CN(C)c1ccc(N)cc1 [DMPD, N,N-Dimethyl-1,4-phenylenediamine]",Km,HaLF [1],9 ± 0.8 mM
same,Km,HaLF [2],8 ± 0.4 mM
HaLF (Heterobasidion irregulare TC 32-1; A247E/F364D),Km,COc1cccc(OC)c1O,3.8 ± 0.3 mM
same,kcat,COc1cccc(OC)c1O,0.87 ± 0.03 s⁻¹
same,Km,COc1ccccc1O,31 ± 4 mM
same,kcat,COc1ccccc1O,0.3 ± 0.02 s⁻¹
same,Km,[3],11 ± 1.5 mM
same,kcat,[3],16 ± 1 s⁻¹
B1,Km,purified protein [4],4 ± 0.6 mM
same,kcat,purified protein [4],428 ± 14 s⁻¹
same,Km,purified protein [5],1.6 ± 0.3 mM
same,kcat,purified protein [5],26 ± 2 s⁻¹
same,Km,purified protein [6],20 ± 5 mM
same,kcat,purified protein [6],3.7 ± 0.4 s⁻¹
same,Km,purified protein [7],0.5 ± 0.05 mM
same,kcat,purified protein [7],122 ± 4 s⁻¹
